From article PMC6765138 (Nucleic Acids Research, 2019)
Numbering of substitutions follows the chain as printed.

B1: Se-Met-MtPrpR_(81–486) (selenomethionine-derived MtPrpR_(81–486)) (domain or fragment)
chain: DARLVADLSDVFTDIGVEHAVSGAQIEEFVARMPEVGHSLVAVHRRLRAATEELEGYRSRATAETELPPARPMPFEEVRDFFYDRNNYIHDLDMAAERMFTESGMRTGGLDIQLAELMRDRFGISVVIDDNLPDTAKRRYHPDTKVLRVAHWLMPGQRAFQIATQLALVGQSDLISSIVATDDQLSTEARGVARIGLANYFAGAFLLPYREFHRAAEQLRYDIDLLGRRFGVGFETVCHRLSTLQRPRQRGIPFIFVRTDKAGNISKRQSATAFHFSRVGGSCPLWVVHDAFAQPERIVRQVAQMPDGRSYFWVAKTTAADGLGYLGPHKNFAVGLGCDLAHAHKLVYSTGVVLDDPSTEVPIGAGCKICNRTSCAQRAFPYLGGRVAVDENAGSSLPYSSTEQSV
modifications: selenomethionine incorporated in place of methionine
notes: also called Se-PrpR_(81–486); not shown: His6, N-terminal, kept
B2: MtPrpR_(81–486)_F155H variant (domain or fragment)
chain: B1 chain with F75H
notes: also called MtPrpR_(81–486)_F155H mutant; MtRamB-like mutant of MtPrpR; not shown: His6, N-terminal, kept

Experiments:
[1] = target: the molecule itself; experiment: crystal structure
[2] = target: the molecule itself; experiment: SEC

| Protein | stoichiometry N [1] | stoichiometry N [2] |
| --- | --- | --- |
| B1 | 4 | – |
| B2 | – | 4 |
